Here are results for 94 variants from the supplement of paper PMC10567573.

Sequences and labels used below:
B1: CHIT1 (parent)
chain: CSWKGATKQRIQDQKVPYIFRDNQ
B2: SMARCE1 (parent)
chain: YHNSPAYLAYINAKSRAEAALEEE
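Also: lentivirally expressed fusions sorted by FACS into six bins by GFP to DsRed ratio, PSI derived from sequencing read proportions per bin multiplied by bin number.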

The variants in one series derive from B1. Description: protein stability index of a GFP-peptide fusion (GPS, HEK-293T) (PSI 1-6); higher = more stable. The following applies: c terminus: a fixed tail appended.
For CSWWGATKQRIQDQKVPYIFRDNQ [K4W], the protein stability index was determined as 2.12.

As for CSWYGATKQRIQDQKVPYIFRDNQ [K4Y], the protein stability index was 2.2. Same read-out and setting: the result for CSWNGATKQRIQDQKVPYIFRDNQ [K4N] reads 2.5; that for CSWKGATKQRIQDPKVPYIFRDNQ [Q14P], 2.98; that for CSWKGATKQRIQDDKVPYIFRDNQ [Q14D], 2.81. The same measure, in the same setting: the same measure for CSWKHATKQRIQDQKVPYIFRDNQ [G5H]: 2.59.

In the case of CSWKGATKQRIQDQKVPYIFRDNN [Q24N], the protein stability index was determined as 2.45.

As to CSWKGATKQRIQDQKVPYIFRDNT [Q24T], the protein stability index came to 2.75. Same read-out and setting: the result for CSWKGATKQNIQDQKVPYIFRDNQ [R10N] reads 3.46; that for CSWKGATKQYIQDQKVPYIFRDNQ [R10Y], 2.54. Same read-out and setting: the same measure for CSWKGATKQPIQDQKVPYIFRDNQ [R10P]: 2.47; for CSWKGATKQSIQDQKVPYIFRDNQ [R10S]: 2.81.

Consider CSWKGATKQRAQDQKVPYIFRDNQ [I11A], for which the protein stability index worked out at 2.85. On the same count and under the same terms, the same measure for CSWKGATKQRYQDQKVPYIFRDNQ [I11Y]: 2.51; for CSWKGATLQRIQDQKVPYIFRDNQ [K8L]: 2.77; for CSWKGATKHRIQDQKVPYIFRDNQ [Q9H]: 2.66. Turning to GSWKGATKQRIQDQKVPYIFRDNQ [C1G], the protein stability index was 3.47.

For the variant NSWKGATKQRIQDQKVPYIFRDNQ [C1N], the protein stability index came out at 2.88.

With KSWKGATKQRIQDQKVPYIFRDNQ [C1K], the protein stability index is 3.36.

As to WSWKGATKQRIQDQKVPYIFRDNQ [C1W], the protein stability index was determined as 2.26. On the same count and under the same terms, the result for CSWKGATKQRIQDQKVPYIFRDLQ [N23L] reads 1.89; that for CSWKGATKQRIQDQKVPYIFTDNQ [R21T], 2.99.

As to CSWKGATKQRIQDQKVPYIFFDNQ [R21F], the protein stability index was determined as 2.47. Still for that read-out and setting: the same measure for CSWKGATKQRIQDQKVPYMFRDNQ [I19M]: 3.54; for CSWKGATKQRIQDQMVPYIFRDNQ [K15M]: 2.28; for CSWKGATKQRIQDQLVPYIFRDNQ [K15L]: 2.2. The same measure, in the same setting: the same measure for CSWKGATKQRIQCQKVPYIFRDNQ [D13C]: 2.47; for CSWKGATKQRIQLQKVPYIFRDNQ [D13L]: 1.75; for CSWKGATKQRIQDQKVNYIFRDNQ [P17N]: 2.51. On the same count and under the same terms, the same measure for CSWKGATKQRIQDQKVTYIFRDNQ [P17T]: 2.57. As to CSWKGATKQRIQDQKVPYIFRHNQ [D22H], the protein stability index came to 1.72. The same measure, in the same setting: the result for CSWKGATKQRIQDQKVPGIFRDNQ [Y18G] reads 4.15; that for CVWKGATKQRIQDQKVPYIFRDNQ [S2V], 1.85.

Turning to CSWKGATKQRIQDQKGPYIFRDNQ [V16G], the protein stability index amounted to 2.73. On the same count and under the same terms, the result for CSWKGATKQRIQDQKEPYIFRDNQ [V16E] reads 2.85. The same measure, in the same setting: the same measure for CSWKGATKQRIQDQKQPYIFRDNQ [V16Q]: 3.07. Take CSWKGATKQRIYDQKVPYIFRDNQ [Q12Y]: the protein stability index was 2.38.

The variants in another series derive from B2. The description is as above. The following applies: c terminus: a fixed tail appended.
For YHNSPAYLAYINAKSRAEAALEEC [E24C], the protein stability index was 2.38.

Regarding YHNSPAYLAYINAKSRAEAALEES [E24S], the protein stability index was determined as 3.47.

Consider YHNSPAYLAYINAKSRAEAALEEH [E24H], for which the protein stability index came out at 1.91. For YHNSPAYLAYINAKSRAEAALEEG [E24G], the protein stability index is 1.95. The same measure, in the same setting: the result for YHNSPAYLAYINAKSRAEAALEEF [E24F] reads 2.59; that for YHNSPAYLAYINAKSRAEAALEED [E24D], 2.3. Still for that read-out and setting: the result for YHNSPAYLAYINAKSRAEAALEET [E24T] reads 2.17; that for YHNSPAYLAYINAKSRAEAALEEL [E24L], 1.56; that for YHNSPAYLAYINAKSRAEAALEEN [E24N], 2.47. Turning to YHNSPAYLAYINAKSRAEAALEEY [E24Y], the protein stability index amounted to 1.71. On the same count and under the same terms, the same measure for YHNSPAYLAYINAKSRAEAALEEW [E24W]: 1.63. On the same count and under the same terms, the result for YHNSPAYLAYINAKSRAEAALEEQ [E24Q] reads 3.45. Same read-out and setting: the same measure for YHNSPAYLAYINAKSRAEAALEEK [E24K]: 2.91; for YHNSPAYLAYINAKSRAEAALEER [E24R]: 2.71.

YHNSPAYLAYINAKSRAEAALEEV [E24V]: the protein stability index turned out to be 2.19. On the same count and under the same terms, the result for YHNSPAYLAYINAKSRAEAALEEA [E24A] reads 2.12; that for YHNSPAYLAYINAKSRAEAALEEM [E24M], 2.55; that for YHNSPAYLAYINAKSRAEAALEEI [E24I], 1.88.

Take YHNSPAYLAYINAKSRAEAALEEP [E24P]: the protein stability index stood at 1.45. Take YHNSPAYLAYINAKSRAEAAREEE [L21R]: the protein stability index came to 2.1.

With YHNSPAYLAYINAKSRAEAATEEE [L21T], the protein stability index turned out to be 1.59. Still for that read-out and setting: the result for YHNSPAYLAYINAKSRAEAAIEEE [L21I] reads 3.51; that for YHNSPAYLAYINAKSRAEAAFEEE [L21F], 3.43. Regarding YHNSPAYLAYINAKSRAEAAPEEE [L21P], the protein stability index amounted to 3.6. Take YHNSPAYLAYINAKSRAEAAYEEE [L21Y]: the protein stability index worked out at 1.94. The same measure, in the same setting: the same measure for YHNSPAYLAYINAKSRAEAAKEEE [L21K]: 2.51. On the same count and under the same terms, the result for YHNSPAYLAYINAKSRAEAAGEEE [L21G] reads 2.15. The same measure, in the same setting: the same measure for YHNSPAYLAYINAKSRAEAACEEE [L21C]: 2.89. Take YHNSPAYLAYINAKSRAEAAQEEE [L21Q]: the protein stability index amounted to 2.07.

With YHNSPAYLAYINAKSRAEAAEEEE [L21E], the protein stability index stood at 1.84.

As to YHNSPAYLAYINAKSRAEAANEEE [L21N], the protein stability index came out at 2.46. Same read-out and setting: the same measure for YHNSPAYLAYINAKSRAEAASEEE [L21S]: 1.95; for YHNSPAYLAYINAKSRAEAAHEEE [L21H]: 2.77. With YHNSPAYLAYINAKSRAEAAAEEE [L21A], the protein stability index is 2.26. Still for that read-out and setting: the result for YHNSPAYLAYINAKSRAEAADEEE [L21D] reads 1.88; that for YHNSPAYLAYINAKSRAEAAWEEE [L21W], 2.94. On the same count and under the same terms, the same measure for YHNSPAYLAYINAKSRAEAAVEEE [L21V]: 2.67; for YHNSPAYLAYINAKSRAEAAMEEE [L21M]: 2.04. The same measure, in the same setting: the result for YHNSPAYLAYINAKSRAEAALHEE [E22H] reads 2.83; that for YHNSPAYLAYINAKSRAEAALIEE [E22I], 2.59. Turning to YHNSPAYLAYINAKSRAEAALVEE [E22V], the protein stability index is 2.73. Still for that read-out and setting: the same measure for YHNSPAYLAYINAKSRAEAALMEE [E22M]: 2.01; for YHNSPAYLAYINAKSRAEAALTEE [E22T]: 2.36.

For YHNSPAYLAYINAKSRAEAALFEE [E22F], the protein stability index was determined as 2.04.

Turning to YHNSPAYLAYINAKSRAEAALLEE [E22L], the protein stability index was determined as 4.41.

Regarding YHNSPAYLAYINAKSRAEAALAEE [E22A], the protein stability index came to 2.7. Still for that read-out and setting: the result for YHNSPAYLAYINAKSRAEAALYEE [E22Y] reads 1.9. With YHNSPAYLAYINAKSRAEAALSEE [E22S], the protein stability index came out at 2.41.

As to YHNSPAYLAYINAKSRAEAALDEE [E22D], the protein stability index was 2.21. With YHNSPAYLAYINAKSRAEAALPEE [E22P], the protein stability index is 2.73. Same read-out and setting: the same measure for YHNSPAYLAYINAKSRAEAALCEE [E22C]: 2.17. As to YHNSPAYLAYINAKSRAEAALQEE [E22Q], the protein stability index was 1.91.

Regarding YHNSPAYLAYINAKSRAEAALWEE [E22W], the protein stability index is 2.29.

Consider YHNSPAYLAYINAKSRAEAALREE [E22R], for which the protein stability index was 2.25. Same read-out and setting: the result for YHNSPAYLAYINAKSRAEAALGEE [E22G] reads 2.67.

For the variant YHNSPAYLAYINAKSRAEAALNEE [E22N], the protein stability index was determined as 2.44. The same measure, in the same setting: the result for YHNSPAYLAYINAKSRAEAALKEE [E22K] reads 1.86.
